Measurements reported in article PMC10197057 (Microbial Cell Factories, 2023).

Molecular target: T1, lysozyme from chicken egg white (Gallus gallus, UniProt P00698)
T1 construct: lysozyme from chicken egg white (Sigma-Aldrich L4919); source: bought: Sigma-Aldrich (L4919)
Assay: BLI; BLItz system; nanobody (100 mg/L) loaded via His-tag on Anti-Penta-HIS (HIS1K) sensor; dilution series of antigen in solution; association 180 s, dissociation 300 s; sensor hydrated in PBS-T (0.1% Tween-20); reference without antigen; global fitting
Settings: both partners purified

T1 sequence (P00698 19-147): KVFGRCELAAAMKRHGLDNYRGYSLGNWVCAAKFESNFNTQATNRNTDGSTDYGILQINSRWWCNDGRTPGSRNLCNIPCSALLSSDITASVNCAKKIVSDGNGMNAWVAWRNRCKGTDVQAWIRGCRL

- Kd: 1.5 nM
B1: monovalent antilysozyme nanobody 1ZVH (VHH)
VHH: DVQLVESGGGSVQAGGSLRLSCAASGYIASINYLGWFRQAPGKEREGVAAVSPAGGTPYYADSVKGRFTVSLDNAENTVYLQMNSLKPEDTALYYCAAARQGWYIPLNSYGYNYWGQGTQVTVSS
notes: anti-lysozyme camelid VHH; also called anti-lysozyme VHH; not shown: CBH2 secretory signal, CBD-carrier polypeptide and KEX2 linker (RDKR), N-terminal, cleaved; His6, C-terminal, kept
